According to patent publication US20240336691A1 (PROMETHEUS BIOSCIENCES, published 2024):
“And” between values parts separate entries of the source, which are not always exact repeats. Identical values can stand only once.

T1: TL1A in human blood (endogenous) (human, UniProt O95150 72-251, limits assumed)
T1 sequence (looked up): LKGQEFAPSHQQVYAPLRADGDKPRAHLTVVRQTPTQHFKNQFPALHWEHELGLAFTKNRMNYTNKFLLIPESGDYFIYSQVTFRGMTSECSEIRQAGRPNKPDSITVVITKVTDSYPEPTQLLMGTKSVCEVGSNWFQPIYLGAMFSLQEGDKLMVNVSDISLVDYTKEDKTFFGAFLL

T2: TL1A produced by cynomolgus monkey PBMCs in whole blood (cynomolgus monkey, UniProt G7PRK8 72-251)
T2 sequence: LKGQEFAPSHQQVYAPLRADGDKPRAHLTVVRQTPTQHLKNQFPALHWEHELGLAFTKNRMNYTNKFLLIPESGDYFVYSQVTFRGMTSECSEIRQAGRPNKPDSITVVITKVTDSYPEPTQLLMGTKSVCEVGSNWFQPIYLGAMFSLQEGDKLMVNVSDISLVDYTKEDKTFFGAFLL


How the values were obtained:
[1] = biological target: T1, TL1A in human blood (endogenous); test: cell-based or functional assay
[2] = biological target: T2, TL1A produced by cynomolgus monkey …; test: cell-based or functional assay

Binder | % Inhibition at 1 nM Ig of interferon gamma release in human blood [1] | % Inhibition at 10 nM Ig of interferon gamma release in human blood [1] | mean IC50 for the inhibition of the IFN-γ response in monkey whole blood [2]
anti-TL1A antibody A219 (antibody, V domains shown) VH: QVQLVQSGAEVKKPGASVKVSCKASGFDIQDTYMHWVKQRPGQGLEWMGRIDPASGHTKYDPKFQVRVTITRDTSTSTVYLELSSLRSEDTAVYYCARSGGLPDVWGQGTTVTVSS VL: EIVLTQSPGTLSLSPGERATLSCRASSSVSYMYWYQQKPGQAPRPLIYATSNLASGIPDRFSGSGSGTDFTLTISRLEPEDFAVYYCQQWEGNPRTFGGGTKLEIK | – | – | 1.54 nM and 289 ng/mL
A147 (antibody, human IgG1, V domains shown) VH: QVQLVQSGAEVKKPGASVKVSCKASGFDIQDTYMHWVKQRPGQGLEWMGRIEPASGHIKYDPKFQGRVTMTRDTSTSTVYMELSSLRSEDTAVYYCARSGGLPDWWGQGTTVTVSS VL: EIVLTQSPGTLSLSPGERATLSCRASSSVSYMYWYQQKPGQAPRPLIYATSNLASGIPDRFSGSGSGTDFTLTISRLEPEDFAVYYCQQWEGNPRTFGGGTKLEIK | 51.3% | 72.4% | –
A217 (antibody, human IgG1, V domains shown) VH: QVQLVQSGAEVKKPGASVKVSCKASGFDIQDTYMHWVKQRPGQGLEWMGRIDPASGHTKYDPKFQVRVTITRDTSTSTVYMELSSLRSEDTAVYYCARSGGLPDVWGQGTTVTVSS VL: EIVLTQSPGTLSLSPGERATLSCRASSSVSYMYWYQQKPGQAPRPLIYATSNLASGIPDRFSGSGSGTDFTLTISRLEPEDFAVYYCQQWEGNPRTFGGGTKLEIK | 46% | 72.2% | –
A219 (antibody, V domains shown) VH: QVQLVQSGAEVKKPGASVKVSCKASGFDIQDTYMHWVKQRPGQGLEWMGRIDPASGHTKYDPKFQVRVTITRDTSTSTVYLELSSLRSEDTAVYYCARSGGLPDVWGQGTTVTVSS VL: EIVLTQSPGTLSLSPGERATLSCRASSSVSYMYWYQQKPGQAPRPLIYATSNLASGIPDRFSGSGSGTDFTLTISRLEPEDFAVYYCQQWEGNPRTFGGGTKLEIK | 59.8% | 75.2% | –

The next lines start with the values.

% Inhibition at 1 nM Ig of interferon gamma release in human blood [1] | % Inhibition at 10 nM Ig of interferon gamma release in human blood [1] | mean IC50 for the inhibition of the IFN-γ response in monkey whole blood [2] | Binder
46.8% | 71.2% | – | A212 (antibody, human IgG1, V domains shown) VH: QVQLVQSGAEVKKPGASVKVSCKASGFDIQDTYMHWVRQRPGQGLEWIGRIDPASGHTKYDPKFQVRATITTDTSTSTAYLELSSLRSEDTAVYYCARSGGLPDVWGQGTTVTVSS VL: EIVLTQSPGTLSLSPGERATLSCRASSSVSYMYWYQQKPGQAPRPLIYATSNLASGIPDRFSGSGSGTDFTLTISRLEPEDFAVYYCQQWEGNPRTFGGGTKLEIK
36.9% | 63.2% | – | A220 (antibody, human IgG1, V domains shown) VH: QVQLVQSGAEVKKPGASVKVSCKASGFDIQDTYMHWVKQRPGQGLEWMGRIDPASGHTKYDPKFQVRVTMTRDTSTSTAYLELSSLRSEDTAVYYCARSGGLPDVWGQGTTVTVSS VL: EIVLTQSPGTLSLSPGERATLSCRASSSVSYMYWYQQKPGQAPRPWIYATSNLASGIPDRFSGSGSGTDFTLTISRLEPEDFAVYYCQQWEGNPRTFGGGTKLEIK
48.6% | 69.8% | – | A213 (antibody, human IgG1, V domains shown) VH: QVQLVQSGAEVKKPGASVKVSCKASGFDIQDTYMHWVRQRPGQGLEWMGRIDPASGHTKYDPKFQVRVTITTDTSTSTVYMELSSLRSEDTAVYYCARSGGLPDVWGQGTTVTVSS VL: EIVLTQSPGTLSLSPGERATLSCRASSSVSYMYWYQQKPGQAPRPLIYATSNLASGIPDRFSGSGSGTDFTLTISRLEPEDFAVYYCQQWEGNPRTFGGGTKLEIK
